From the domain aggregation screens of Martell et al. (2025)

Assay: soluble fraction after stress (log2 fold change); higher = more stays soluble; pooled small domains, quantitative proteomics
Details: stress: 75 degC
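Also: 20 min heating vs room temperature control held 20 min.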

Sequence | soluble fraction (log2)
HMDSVVPNVVGMTAEKANKALTDAGLNVKITGATIGSGAVVHSQSIPAGTVTSKGTVVSIEMRFAAAEGD | -0.242
HMDSYSILGIEKESSMEDIEKAYIDKISKIKKEVKNEKNAAAFEAVLTKAYNDILSQKENISEEQELAE | 0.0885
HMDTAGSVAIVSKSVIENGFGEIKYKGTYFKAQSDVYIPKDQMVKVIGKGDEQGSFLIVEKLN | 0.0706
HMDTIASESVRNRIEELISNENPKKPLSDQALVKMLQEFDIKIARRTVAKYREMLKIPPSSKRKQV | -0.265
HMDTIGSKVLAFLAGNLLDPTPFNYRFGYLYLNRTSKVIVEETDTYIDSGMRMTQEAVAEIMQKFAQ | -4.12
HMDTITMAGERYAVSDLEKVSGDIFEKAFGFEIDPKTADAKDVLPTMPKSDVDLFKKLSGIKP | 0.401
HMDTIYPFNPNFIDDYKGYVLGLNTNEIDRLLKYRSKGNWINSAEDFKKVTGIDDALLNKLSKSFKFPDWL | -1.81
HMDTLRPLGRYQNVHLTKQELTALQSEFSDWSERIERLSSYMASTGRKYQNHAATIRLWAEKDK | 0.0841
HMDTMINLIGLNLKKAKKELSNLGVNVKKVRYKKSSVYDEGVVIDQSIEAGRNIKNGDFITITVSSGKA | -0.473
HMDTNEPFAQLQLRFTDPIQYDYEVIRPVVLFSQSVTDRSDETEMPRTTVREKARQFVTEGMLGLVDK | 0.166
HMDTNTIIGLRIKALRTEKKYTLKYLSENSGLSIGFLSQLERGMTSVAIDSLDKISKVLDVELSSFFN | -3.05
HMDTPMQEAVLQRLRDKVAQAAAGSKLPTVRQLIADYGVGQHVIQAALEKLRTEGLITSHVGKGTFVG | 0.325
HMDTPMYMAIIEEVRFQIANEILKEGEQLPSIRNLAKTLKVSVITVKRAYKELEEAGYITTIPAKGSKVS | -1.16
HMDTQKYDLNDDGRFDVQDVTYLQIKIAGDGELTDNQKKIADYNNDGKIDVQDVTSAQMLIS | 0.023
HMDTSADEVKQLIASFVEQEDKRKPLSDQKIVELLAEKEQKISRRTVAKYRDALNIPSSSKRKRF | 0.469
HMDTSISHLVGRTGEAVTDLRPAGTVMIDGELYDARATEGFIEKGEIVKAIKYQYGQLNVRRVSK | 0.00609
HMDTVSYSTLLRDIDAKEIKQLDLVPGRREVRVQYNDGRRVTVPVFANDNQILRAAESSGTPLTVV | 0.0297
HMDVADITGTRKAAILLLTMDEELSKELLKEFERHEIEAIGKEIANIKYIPENIVKQVHSEFLKNINKS | -0.282
HMDVFTAKTASHIQELREKLGQQAVFGRSDVQNALGLKATRSSALLREMAEHGIIEPVTGYGKGRYHFRS | 0.204
HMDVIDDAQAMEIALEDAGLSMDDLDRYELELHTKRSELVYSIELKSGTEEYEYDLRAADGTILKRDTDF | 0.0166
HMDVLDVADNVNDDMSFADAFAAARSEVGAGGIFYWHGKAYGTYYENEWAGMSEEDKADYWDAVARTTS | -0.144
HMDVLSPEEWIEFRTAYNNNRYISQYGSKGATIEDDYATRLAMIGGKESYYFLNDPRWTEPGYGNLK | -0.5
HMDVMNEIQQKAFDIYIQSASLKNDFTPISERALAKKLHDMGLKSSMSAIGRWKKKFGWVQSLQNKVTLA | -0.173
HMDVNKDLLGETLEKAKSYKADDWRKASYEALQKAIVEAEAVYKDEEADQVAVDRKVAALNKAINNLEAKG | 0.475

Sequence | soluble fraction (log2)
HMDVNPETLSYYIERADISLDELRTSVKGIDLFLTGEKQPTFNQISNIAKKLNIPTGLLLINKPIEI | -0.645
HMDVNSRIRQFLKKMKITVQTFESSIGKTNGYIAHTKSPTAGVLAEIAKVYPDLNLDWLITGEGEMLKN | -1.42
HMDVPTSSITEVKKSPMDVFAQARKAETGVYIFNREKIAGVMLTKEQYEALVEELNTLRDTL | -0.68
HMDVQEILGALSPDEKAAIGQLTSGEKHIDQIIAATRLPAARITSALTLLQIKGYVRALPGKRFSLTEKQ | -1.87
HMDVQPTTTKTMFYTVQQGETLFSISRKFGISVEEITKKNPLASSGLTVGMELLLPEKKEINSTIQS | 0.0149
HMDVSEITTIKWIIKETKLGINEKILIYVNSKNFTVETLMEGFEIMSKYLVENVSSDKIVYIKN | 0.0119
HMDVTDRLARRLQGLRSAQGLSLDALAARSGVSRSNISLIERGQSSPTATVLDKLSAALGVTLAALFEEP | -1.04
HMDWVAYGAELRRRRLLAGWTVAELSRRINLSGMTIHQIEKGRGRLRPSELTLAKLAAALGMPTP | -3.58
HMDYEVPEELEEKFSENPQFKEAFDNLTPGRQHQYIYHISQAKRSQTRINRIEKYYEHILNGKGMQD | 0.111
HMDYGTATASAILYLEKIDPENPYLLLAKDTITTNPKMSVNFALKGIIESKKGEKEENLNKALEIMSSL | -0.144
HMDYKSNLQEMVQTTKKSVTYELVKEEGPAHDRTFTMNVIVDGIVLGTGTAKSKKEAEQEAAHQALEKKA | -0.253
HMDYTGIPQSLLDLMKKDNIMPMQIQRAVAERNYYPVDTPISNYDPMFIEAKLVGAWDQVLNVISHLDLP | -1.25
HMDYTPIEVKDLPQAIQDALTKNFSEYTVKSAAYQEDEDGVKIYQVTVVDEEGTEANIFFTEKGE | 0.206
HMEADERRNEILDAAETLITEKGYSKTTIIDILNQVGIAKGTFYYYFKSKEEVMDAIIERFI | -2.41
HMEAEGLDFAPMPGEIGKKLWQEVSKEAWAGWLKHQTMLVNENRLSFVDPAARKYLTEQTEAYFFG | 0.131
HMEAEMLYQVKVKITNLVIRSGAGAIYPIVKRYASGVLPIYEEKNGYGKIAVGQWISLSPEFVERVD | -3.13
HMEAEPRLLDLPPGTRAGRLDKVLAQLLPEHSRSRLQGWIERGGVLVNGKEASVRQVVGPGDQLTVWEEAA | -0.0507
HMEAEQLEAIRSALQQLSDMNRTVFNLHVVDGYKHEEIAAMLNITTGTSKAHLHRAKKRLRELID | -1.04
HMEAEVIKTASDMADRNGLHNVSLKAIAENLGIRTPSLYNHIGSLDELLREIAHSGMRTMNE | -0.0854
HMEAFAEAVASMLRKLQPEFAIDLVGPRELLVNGRRLDLENLYRMVNHEPVRGQEIVEHYLDQLFAG | -1.17
HMEAGLRMPEQLTAFSALALLQKVRDSGPLTDAQKEQLDADVLRIEASHFGKADREALELEEILKQWLSRV | 0.149
HMEAKSSTKALLDVVLGRNGVSTANVAKSLNISVQNASTRLKKLSSEGVIMRSEVSSPTGGIEFIYS | 0.109
HMEAKTSNPDYHARLGLTEGEGNDSALGVSVKAAEGGFGLLFGNKVGSDQLVRFANEDQVWLVNRALS | 0.165
HMEALNIEQKKVEIINVLLEKGKGKGRLSYKEISDQIDTVELDKDQMDELYETLMTNGIEIV | 0.00136

Sequence | soluble fraction (log2)
HMEALPSNLRRLRLEAQLTLDRLGALSGVSRAMISKIERGASVPTATMLGKLAAALQVSLSQLL | -1.18
HMEAMITEVKRINYGLISDISKSLDPFKSEGGHIIVDKRTNTFILTDLRANIEKMLWSIEIMD | -0.196
HMEAPNELLVPEGARPARADRVLAAAFPEHSRTALQRAFDAGLVRRANLVLSRDTAVAGGDRIAFSLPAV | 0.0788
HMEARYQLREVSLDGLRSGMILNADVLSTDGVLMARKGLEVSGLLRSRLEAFAKMERIEPTFKVLVPIAPP | -2.19
HMEASSTAIQAMIRRLIDDENPRKPLSDAKLADLLKSSGIPVARRTVAKYREAMNISASHERVRI | -0.793
HMEATEFYLEDLTGQMYNDVVNDEKYAGKIVFEKEEVQSDGEEAIGQILNQRPAGNMNVRIGTTVTLVVNA | 0.242
HMEATVGSRVRLARIGLTLTQKQLAQAVGVSANHLAMVERGSKHASEDLLQRIATATHTTYEWLMGTSEHQ | -2.43
HMEAVIENAAIIKQNSGGYAVRATVNGVDLGMKPVERATALLYFSLTDKLEKDRLLSHTLQKTYGDLSA | -0.212
HMEAYLPVTVVSDGKILTGNLEKAGKNEKWLENVLSELKTDVKNTLLLTVDPKDGLIFYPKG | 0.408
HMEAYMVPNVKNKTLNEAQQALSNQKLKGLVIDSSYVKGVPDGMVLDQNPAGGARVKEGRTIYLTVTTS | 0.237
HMEDADERRALEVLNQLLDLPEREQEAALAALSLPPALARRVRSLLSVQTRAADLFDTAPSP | 0.0142
HMEDAFLQRLISIIEANLSNVDFNVKMLAEQLNMSQPTLYRKVKQRSELSVIDMIRSIRILSLIHISEPTR | -1.07
HMEDDRLIQNLLLTAKNLVMDVGRMDESALAENEDTVRTAMLFALGYLYENRSNPDYHKLTLNLRSILFA | -0.38
HMEDEISLGAINVPRGSVIVTAGGARLVEGSDYTVDYYSGTVKILNKSLLDAGTPINVSLET | -0.0249
HMEDETAKVLRLLAENNGYLPYNDKSDPTDIYAFFGMSKKAFKMTTGNLYKQKKIQFTQTGIQLIE | -1.77
HMEDEVSSSAAYQALLEKGVSKTLARSWVIDYGEAYVLDKVDLTTSQAARGKIKSSTAGFLKAAIEEDFHN | -0.0992
HMEDGEALARAVASLPGKYREVLFLKYSHGYSVDEIALILSMSKENVKKTIQRARKKLEQLLESE | -1.3
HMEDGEVTVPDLRGLTIKEAGTILEKLGLHLSPVGTGLAVRQDVAPGSKVARDTTITVEFEPPDIQVLR | 0.374
HMEDIKHVVANNIKKYRKEERLTLQQLSYLTGVSKTMLNQIETEKSSPSITILWRISSGLKIPLSKLISSP | -1.58
HMEDIPENIRYKFLLKELKENEHLNILDKENIARKLTEIDLPELEKELLENEILNSTIKDYLGIKLV | 0.494
HMEDKFEYQGELKSLIEPTSFSELVSALNVRDTLQAIIDFAMREEDTSGYEELKVRQNDYIQEYLNSIGNF | -0.761
HMEDKFEYQGERKSLIYPTSFSELTEALGVRNMLQSIIDFATRDEDTSGYEEMKERQNEYIQEYL | -0.0262
